Measurements reported in paper PMC9838217, “Structure of SALL4 zinc finger domain reveals link between AT-rich DNA binding and Okihiro syndrome”.

T1: SALL4 ZFC4 WT (Mus musculus, UniProt Q8BX22 870-940)
T1 sequence: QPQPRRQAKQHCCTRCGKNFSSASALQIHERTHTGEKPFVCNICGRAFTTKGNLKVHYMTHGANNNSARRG

T2: SALL4 ZFC4 I897S (Mus musculus, UniProt Q8BX22 870-940, I897S)
T2 sequence: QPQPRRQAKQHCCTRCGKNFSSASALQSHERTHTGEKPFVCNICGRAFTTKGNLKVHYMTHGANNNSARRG

T3: SALL4 ZFC4 I897S+V925S (Mus musculus, UniProt Q8BX22 870-940, I897S;V925S)
T3 sequence: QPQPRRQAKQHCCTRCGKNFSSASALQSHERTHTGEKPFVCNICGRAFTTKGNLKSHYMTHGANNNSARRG

T4: SALL4 ZFC4 R900W (Mus musculus, UniProt Q8BX22 870-940, R900W)
T4 sequence: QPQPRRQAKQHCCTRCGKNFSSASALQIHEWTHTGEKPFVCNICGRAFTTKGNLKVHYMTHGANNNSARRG


Columns and labels:
SALL4 ZFC4 WT [1] = target: T1, SALL4 ZFC4 WT; experiment: X-ray crystallography 2.76 A; Zn2+; 4 ZFC4 and 4 dsDNA per asymmetric unit, unevenly distributed; 50 mM MES pH 6.0, 20% PEG 3350, 60 mM MgCl2; EMSA: 68.1 nM DY681-dsDNA, 20 mM HEPES pH 7.5, 150 mM K acetate, 5 mM Mg acetate, 10 ng/ul poly(dI-dC), 30 min on ice; 4% native PAGE, 0.5x TBE, 4 C; conditions: protein: recombinant; tags: His6-GST removed with 3C protease; GPDS scar at N-terminus; blunt; self-complementary, 2 copies of strand
SALL4 ZFC4 WT [2] = target: T1, SALL4 ZFC4 WT; experiment: EMSA; EMSA: 20 mM HEPES pH 7.5, 150 mM K acetate, 5 mM Mg acetate, 10 ng/ul poly(dI-dC), 68.1 nM DNA, on ice 30 min, gel at 4 C. HT-SELEX: 10 mM Tris-HCl pH 7.5, 50 m; conditions: protein: recombinant; tags: His6-GST removed with 3C protease; GPDS scar at N-terminus; label: DY681
SALL4 ZFC4 I897S = target: T2, SALL4 ZFC4 I897S; experiment: as above; conditions: protein: recombinant; tags: His6-GST removed with 3C protease; label: DY681
SALL4 ZFC4 I897S+V925S = target: T3, SALL4 ZFC4 I897S+V925S; experiment: as above; conditions: protein: recombinant; tags: His6-GST removed with 3C protease; label: DY681
SALL4 ZFC4 R900W = target: T4, SALL4 ZFC4 R900W; experiment: as above; conditions: protein: recombinant; tags: His6-GST removed with 3C protease; label: DY681
SALL4 ZFC4 WT [3] = target: T1, SALL4 ZFC4 WT; experiment: EMSA; apparent; patient mutation dataset; poly(dI-dC); EMSA: 68.1 nM DY681-dsDNA, 20 mM HEPES pH 7.5, 150 mM K acetate, 5 mM Mg acetate, 10 ng/ul poly(dI-dC), 30 min on ice; 4% native PAGE, 0.5x TBE, 4 C; conditions: protein: recombinant; tags: His6-GST removed with 3C protease; GPDS scar at N-terminus; label: DY681
SALL4 ZFC4 WT [4] = target: T1, SALL4 ZFC4 WT; experiment: EMSA; apparent; major groove mutant dataset; poly(dI-dC); EMSA: 68.1 nM DY681-dsDNA, 20 mM HEPES pH 7.5, 150 mM K acetate, 5 mM Mg acetate, 10 ng/ul poly(dI-dC), 30 min on ice; 4% native PAGE, 0.5x TBE, 4 C; conditions: protein: recombinant; tags: His6-GST removed with 3C protease; GPDS scar at N-terminus; label: DY681

Row | Binder | binding result (SALL4 ZFC4 WT [1]) | Kd (SALL4 ZFC4 WT [2]) [nM] | Kd (SALL4 ZFC4 I897S) [nM] | Kd (SALL4 ZFC4 I897S+V925S) [nM] | Kd (SALL4 ZFC4 R900W) [nM] | Kd (SALL4 ZFC4 WT [3]) [nM] | Kd (SALL4 ZFC4 WT [4]) [nM]
1 | palindromic AT-rich crystallisation DNA (dsDNA) DNA 1: GATATTAATATC DNA 2: GATATTAATATC | binds |  |  |  |  |  | 
2 | EMSA AT-rich probe (dsDNA) DNA 1: AAAAAATATTAAAAA DNA 2: TTTTTAATATTTTTT |  | 615 ± 205 | 4800 | 5100 | 23000 | 472 | 760
